Test results taken from the supplement of paper PMC10266784.

B1: library; numbered along this chain (parent)
chain: MAAAAAAAAEQQSSNGPVKKSMREKAVERRSVNKEHNSNFKAGYIPIDEDRLHKTGLRGRKGNLAICVIILLFILAVINLIITLVIWAVIRIGPNGCDSMEFHESGLLRFKQVSDMGVIHPLYKSTVGGRRNENLVITGNNQPIVFQQGTTKLSVENNKTSITSDIGMQFFDPRTQNILFSTDYETHEFHLPSGVKSLNVQKASTERITSNATSDLNIKVDGRAIVRGNEGVFIMGKTIEFHMGGNMELKAENSIILNGSVMVSTTRLPSSSSGDQLGSGDWVRYKLCMCADGTLFKVQVTSQNMGCQISDNPCGNTH

Variants of: B1
Assay: SGCB cell-surface expression functional score (HA stain, bin4 vs bin1, normalised to synonymous) (log10 ratio); higher = more cell-surface SGCB (functional)
Experimental: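 Deep mutational scan of full-length human SGCB (YFP-SGCB-HA, NNN codon sublibraries A-F) delivered by lentivirus at low MOI into ADG-HEK293 cells stably expressing SGCA, SGCD and SGCG. YFP-positive cells were stained for surface HA on unpermeabilized cells and FACS-sorted into bins. The functional score is log10(frequency in high bin 4 / frequency in low bin 1), normalised per chunk so that synonymous variants have mean 0 and SD 0.5. Scores are the median over codons and over duplicate biological replicates; scores below -0.5 are called non-functional. Scale: negative means deleterious.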

Variant | SGCB cell-surface expression functional score (log10)
K202A | -0.2
T317C | 0.17
N132V | -0.38
M22R | 0.01
S125V | -0.88
V32W | -0.05
I208R | -1.44
N63C | -0.16
E248C | -0.97
L64S | 0.31
M262H | 1.32
L287I | 0.07
F102G | -0.51
G62H | 0.18
T150I | 0.04
E248K | 0.73
E185K | -0.01
I256N | 1.09
N211K | 0.09
A26F | 0.47
I137K | -1.21
T209A | -0.04
P173Y | -0.68
V32R | 0.37

Variant | SGCB cell-surface expression functional score (log10)
N258K | 0.55
V68C | 0.91
N199E | -0.68
Q148Y | -0.25
D50E | 0.3
P17F | 0.2
T55M | 0.6
D275L | -0.13
V118K | 0.64
F233E | 0.63
P192A | -1.12
S197I | -0.04
G231N | -0.19
I256M | 0.29
I144P | -1.22
L57T | 0.18
D311R | 0.34
E206L | -0.27
L71R | -0.37
S273N | 0.34
S164T | -0.69
G259Y | -1.22
G280I | 0.26
M305C | -0.18

Variant | SGCB cell-surface expression functional score (log10)
H190N | 0.89
K152G | -0.57
V232D | -1.72
V226S | 0.01
D311T | -0.93
E156W | -0.4
A42P | 0.02
F171P | -0.43
T126C | 0.11
D275P | -1.24
T294P | 0.04
L108E | -1.58
N229R | 0.82
I90F | -1.5
V18G | 0.04
V283F | -0.17
S99M | 0.21
E24G | 0.08
E35V | 0.1
V77Q | 0.33
Y44P | 0.61
E206Y | -0.12
K20M | 0.39
C97K | -1.3

Variant | SGCB cell-surface expression functional score (log10)
E104L | -0.18
V32L | -0.06
K41S | 0.28
K159C | -0.02
S114R | -1.39
I45T | 0.15
R30G | 0.59
S31R | -0.03
R130C | -0.28
G96A | -1.24
I239C | 0.46
P143T | -0.41
P192T | -1.46
V127P | -0.5
F241H | -2.08
N217D | 0.2
I309W | 0.15
K219F | 0.64
N39C | 0.2
F189P | -0.39
T186R | 0.06
S125R | -1.09
I119E | -1.16
I45K | -0.41

Variant | SGCB cell-surface expression functional score (log10)
V283R | -0.21
I90K | 0.13
G93C | -1.43
T138V | 0.19
Q148D | -0.54
S38Q | -0.18
I137Y | -1.36
V18I | 0.24
A42E | 0.71
S154Y | -0.16
V261I | 0.29
K297E | 0.15
N141S | 0.17
S181M | 0.13
S254V | 0.02
R30D | 0.85
V220Q | -0.31
L153V | -0.65
I309T | 0.29
Y123W | 0.33
G315L | -0.02
G93R | -0.4
R130S | -0.4
P173S | 0.5

Variant | SGCB cell-surface expression functional score (log10)
D98N | -0.3
F180T | -1.29
C307Q | 0.09
S114P | -0.77
A65H | -0.17
V145D | -0.79
D165R | 0.2
N132Q | -0.01
T265S | 0.4
W87S | 0.18
L75N | -0.4
A9Y | 0.45
G244H | 0.75
I225R | 0.53
E188Y | -1.16
I45W | 0.91
N211W | -3.13
V263D | -0.53
K20T | 0
L64I | -0.1
C288E | 0.01
A203K | -1.01
T55A | -0.43
N157T | -0.05

Variant | SGCB cell-surface expression functional score (log10)
R58E | -0.08
E248V | 0.52
R223M | 0.82
V261R | -0.69
F102V | -1.57
T213R | 0.18
V283Q | -0.56
G106E | -0.58
L179D | -1.87
C290S | -0.53
R174I | -0.15
T213D | -0.81
G306D | -0.69
V27L | 0.26
S204C | -0.16
T126H | 0.76
G16D | 0.57
Q169E | 0.46
N33Q | -0.23
T301Q | 0.16
I239H | -0.15
S272G | 0.1
S302A | -0.01
F146Q | -1.34

Variant | SGCB cell-surface expression functional score (log10)
S260F | 0.4
K297Q | -0.3
M1Q | 0.35
E10H | 0.08
N95F | 0.3
S13M | 0.29
E133Q | -0.09
R60S | 0.18
K111R | -0.25
G128E | 0.08
H53C | -0.27
S270K | -0.13
L84G | 0.24
G293D | 0.2
G43R | 0.51
N312E | 0.35
V226T | 0.44
L216E | -1.92
I144C | -0.33
K250D | 0.83
P17H | 0.1
C67A | 0.57
H53G | 0.41
R267F | 0.59

Variant | SGCB cell-surface expression functional score (log10)
E35L | -0.2
K196Q | 0.02
Q276L | -0.3
Q169A | -1.13
I144F | -0.77
G236L | -1.75
L75V | -0.01
T151V | -0.15
E133F | -0.38
F180L | -0.42
G244F | 1
N312R | 0.27
S193Y | -0.19
L135A | -1.13
N141Y | -0.56
Q176M | -0.21
S125A | -0.08
S254L | 0.74
L71Q | 0.12
V283M | 0.74
S204A | -0.04
A65K | 0.51
P94F | 0.24
R227Y | 0.15

Variant | SGCB cell-surface expression functional score (log10)
Q169H | -0.86
I208M | -0.33
I239F | -0.45
Q276I | 0.1
L277T | 0.24
M289F | -1.2
F241N | -0.57
I208P | -1.33
N316G | -0.83
N39Q | 0.07
G231S | -0.88
N140D | -0.24
E185C | 0.41
S38E | 0.31
L108T | 0
V136S | -0.3
L52S | -0.1
D275M | 0.18
A76G | -0.2
S105R | -0.4
K152C | 0.03
R207I | -1.03
I78G | -0.04
G236D | -0.43

Variant | SGCB cell-surface expression functional score (log10)
L75A | -0.22
L52F | 0.04
T126K | -0.52
N79I | -0.01
N304Q | -0.11
E101N | -1.22
N304P | -0.2
L268W | 0.53
I90E | -1.22
M22H | 0.19
Q148I | -0.28
S214Q | -0.1
L179M | -1.01
S14C | 0.04
F110Q | -1.06
T163A | -0.32
H190W | -0.79
G149Y | -0.57
Y44H | 0.01
E101S | -0.39
Y123H | -0.35
G236E | -1.08
I144N | -0.97
C290F | -0.75

Variant | SGCB cell-surface expression functional score (log10)
Q276P | -0.4
R91A | -0.38
N157V | 0.48
T126G | -0.18
I74T | -0.02
T209F | -0.85
K202E | -0.96
N253V | 0.9
T182D | -2.4
H120C | 0.35
V89E | -0.95
M289L | -0.19
G96Q | -2.14
I256D | 0.02
G16Q | 0.97
L295M | -0.78
N316C | 0.11
I225W | 0.02
R130A | 0.27
M262L | 0.57
M262W | 0.08
A4Q | -0.48
K237A | 0.85
M168H | -1.85

Variant | SGCB cell-surface expression functional score (log10)
R207P | -1.15
P94L | -0.17
M235K | 0.78
I225L | 0.83
L179N | -1.22
I137A | -1.07
R23V | 0.59
T83K | -0.33
L107M | 0.24
E252V | 0.88
R207L | -0.39
P313E | 0.11
M243F | 1.18
G96W | -0.61
N79W | -1.05
E104T | 0.51
E248D | 0.58
T151P | -0.64
S197C | 0.14
L57K | 0.32
E230D | 0.26
F40W | -0.21
S161H | -0.26
T265N | 0.79

Variant | SGCB cell-surface expression functional score (log10)
L84I | 0.01
N140S | -0.38
I66Q | -0.15
G306T | -0.64
Q308K | -0.5
I234T | 0.09
I144L | -0.46
V220A | 0.7
I47M | 0.47
I69E | 0.15
I239Q | -1.16
Q169R | 0.09
A251H | 0.44
A4T | 0.36
A76Y | 0.25
I82N | -0.69
V136A | 0.05
M116E | -1.47
R109D | -0.93
G194E | -0.09
M305L | -0.06
G278Q | 0.09
